Experiment: soluble on expression in E. coli; label from the status in PepcDB or PDB records

Sequence | soluble on expression in E. coli
MGSDKIHHHHHHMLNWSHLPAIKPKYLAITQFIKQAIQNGDLLPGQRLPAERELATLLHVDRSTVTRALLDLAAVGILVKKRGSGTFVAQLPHVNQLANKVNWQAFLENTTATRHATYQRKLAKARTTATVPLIDAAANELPTNLIPQLGTLTLDWQGFLTAQQQEERTGYLPLMQTINRYHTARQQFTLDRQSLIITGGAQQALLLILNSLLQPGDAVAFVTPSYFSASAVFSAAGVRAYTIPTTTLGLDLTALETAIIKHRIKLLILNPTLQNPTGRILPLAERQAILALCQRYQVAIVEDDVFGWLVDRDIAVPPFKALAPDNVIYISSLSKLLGSNTRIGWIVAPQAIGERIRQVQKNLDLVPSLLAQVMVDHALNSPEFSLGVTQLTTQLAQRRQNVTAILRQLRPDWHFVTPLGGFYLWVTQADRNVFEHLLEQHLLVTPGPIYGADRSAFRFNFAGLDYRQQRLLIQRLS | not soluble
MKQWREKSRQLAERGDLTPADWSNLELYCVNYSIYRKAVADLAARGFSIVNSQGGESRNPALSAKSDAERVMIKMASLLGFDPISRRKNPPETEEEDELDRLE | not soluble
MGSDKIHHHHHHMRENSDVLANSGFRQSVEVQIKDKQSYKRLNMTLVGQQHPDYLILELSRQYCWQDILPMLATEKNVAIKTVSPKGEQVTGVVDILHITQYPQKLLFVSYPRNASVEILRSSPRVGVNCDARLQLQLKDKLGEPLTGKIVDISNKGIAFNYFGTSPVNIEDSRGLEAEVRVKTDDETILLQQLITRSIRSVGPQLWQLGLSYKEKPNNLQDLVSKLFLHSTPVRELLSDNDPGWDASDNTLQGESESVQFSTN | not soluble
MVLETTSSRDGEIKLTVDQMLGKLARWIRLMGYDVYYPSGTVPDDEIITKSRSEGRIIITRDYGMYQKYPMSIFEPYDDINDQLRDFIAHFSSRMKDRFMRCPVCNGRLVKLRSKIPEYLRNHRDVYICTGCHKMYWKGSHYRRIYRKIENLRPKGE | soluble
LEGENSKQKVQMSIHQFTNICFKKCVESVNDSNLSSQEEQCLSNCVNRFLDTNIRIVNGLQNTR | soluble
MGSDKIHHHHHHMFLRNMWYVAAFSADVKPGKCLARTFLNEPVVLFRTASGSLGALIDRCSHRAMPLSEGHVDGDIIRCPYHGLEFNAAGVCAHIPGQERIPAAANVRSYPVSERDGLIWIWMGEPEKADLRSIMSNPEHRDPGWSWRPYYMHVNSNWQLLVDNILDLTHVAYIHANTIGGNPQTHFNADMSVQFDGEKVTLLRKMPNSVPPKTYVAAGGFKGNVDRWQMVEYRPCGGNVLRVNAGACEVGTGAYEGRRDNGFTLLNVHGVTPETETTTHYIWTICTDAPRESGVPDMLFDQFYETICEDERALEAQQRRINDMPDMRFVGIASDGAVSRARLLLERLHENETAVTS | not soluble
MSLGNIKTLLENRFKKPTSDKMESLAKKRLEGELSPFLNGFTNPKLSSQEEAKFRQLLEEYSFSNEISKHDLQQLCHLSAQVKQIHHQAVLLHGERIKKVRELLTSYREGAFSAWLLLTYGNRQTPYNFLVYYELFSTLPDSLKLELEKLPRQAVYTLAAREGTQEKKEAIIRNYQGETKGELLEIIRKEFPLLPTDRRHTPLSQKAFTLLAKGTKLLRQCTDVSHEELIALEKLIKKLQKVTTNLLSNTKVSRNDNEIQNSRNEGHHHHHH | soluble
MLSRVRIGWLLLEDFFRMNEFEELLNSVSEVSTGDVVTAEVISVDNDQANVVIEGTGIEGVLTRRELTNDRDANVADLVKDGETLEVLVLRQVVGKDTDTVTYLVSKKRLEARKAWDKLVGREEEVVTVKGTRAVKGGLSVEFEGLRGFIPASMIDTRFVRNTEQFVGQEFDAKIKEVDPAENRFILSRREVVEAEAIEARKEVFSKLEVGSVVTGKVARLTSFGAFIDLGGVDGLVHVTELSHERNVSPKSVVSVGDEIEVKVLAIDEEAGRVSLSLKATTPGPWDGVEQKLAAGDVIEGKVKRLTDFGGFVEVLPGIDGLVHISQISHKRVENPKDVLSVGQDVTVKVLEVNADAERVSLSIKALEERPANAEGENNEKRQSRPRRPKRQEKRDYELPETQSGFSMADLFGDIEL | not soluble
MATNIGMMDSAYFVGRNEILTWINDRLHLNLSRVEEAASGAVQCQMLDMTFPGVVPMHKLVDLKISTDLLEKERDFYFSKLRDVEILCQTPELDDLPVNVSVEPIVVAVKKILYATDANESALEDAQEYLNQSLGVEDDEAEGNGEQLEEEKTQA | soluble
MSLEKKVVKFFTVDNMEKEEAYLNEMAQNGWFFQKYKSFRYHFKQGEPAKYSYAIDFKENEGDEDAYKTLFEDAGWETVFSYPVLNGNWMYFRKAVAPGETEEAIFTDETSLIQLYKNIRKREGHHHHHH | soluble
MLKGILYIIGIYQRYLSPLKGPTCRFYPSCSRYAHESLTRYGLVKGLWLTTIRILKCHPFHPGGVDPVKLEHHHHHH | not soluble
SNAMSLEKLDTNTFEQLIYDEGKACLVMFSRKNCHVCQKVTPVLEELRLNYEESFGFYYVDVEEEKTLFQRFSLKGVPQILYFKDGEYKGKMAGDVEDDEVEQMIADVLED | soluble
VNPKQPDLGVHVHLVRNVCTVSLDSSGASLDRRGYRTEAGEAPLRETLAAALVEMTGWDGTVPLLDPMCGSGTILVEAALKALNRAPGLIRERFGFQHWPSFDSSLWLRLVTEARQGERTSLESPLLGSDQQADLLSVAAANARRAGVEQHISFTSGDVRGLTPPPAPGIILFNPPYGRRLGDEEGLRVLYRQIGDVLKQRCAGYTAWLLTGGPELAKAVGLRASRRIVLFNGPLECRFLRFDLY | not soluble
MITELTNIHLIKGNLQANSKNEVFAELAQMLLENNRISNKEDFLNDIEIRERLSVTSMDGIAYPHSKSKAVTKPAIAVGVKHEGIEYGDEEGIKPTVFFMIASPDNGADHHIYVLQELFGKFSEEFIEDIHNAKNEHQILNISIQS | not soluble
MSLARQVTAFNTGWQFKKGPFATDPMRAASQWDGKWETVEIPHTWNAMDMQVQSGSFYEGAGYYRKTQFFPHDLEGKRVFLRFEGVGACAEVYVNGKLAGTHKGGYSAFACEIGTALKLGAENEIIVKADNKARPDVIPVNQNLFGVYGGIYRPVWLIVTEQNNITVTDCASPGVYITQKDVSKKSADITVKVKLDNAGLQPAAVTLENTIYTQEGQKVGTHSRSFDLSPQGTQTYLSTFKLKNPHLWQGRKDPYLYKVVCRLMADGKVIDEVVQPLGVRKYEIVAGKGFFLNGEKYSMYGVTRHQDWWGLGSALKNEHHDFDLAAIMDVGATTVRFAHYQQSDYLYSRCDTLGLIIWAEIPCVNRVTGYETENAQSQLRELIRQSFNHPSIYVWGLHNEVYQPHEYTAALTRSLHDLAKTEDPDRYTVSVNGYGHMDHPVNLNADIQGMNRYFGWYEKKIQDIKPWVEQLEKDYPYQKLMLTEYGADANLAHQTEYLGDALNWGKPFYPETFQTKTHEYQWSIIKDHPYIIASYLWNMFDFAVPMWTRGGVPARNMKGLITFDRKTKKDSYFWYKANWSEEPVLYLTQREGHHHHHH | not soluble
MGSDKIHHHHHHMTINFRRNALQLSVAALFSSAFMANAADVPQVKVTVTDKQCEPMTITVNAGKTQFIIQNHSQKALEWEILKGVMVVEERENIAPGFSQKMTANLQPGEYDMTCGLLTNPKGKLIVKGEATADAAQSDALLSLGGAITAYKAYVMAETTQLVTDTKAFTDAIKAGDIEKAKALYAPTRQHYERIEPIAELFSDLDGSIDAREDDYEQKAADPKFTGFHRLEKALFGDNTTKGMDQYAEQLYTDVVDLQKRISELAFPPSKVVGGAAGLIEEVAASKISGEEDRYSHTDLWDFQANVEGSQKIVDLLRPQLQKANPELLAKVDANFKKVDTILAKYRTKDGFETYDKLTDADRNALKGPITALAEDLAQLRGVLGLD | not soluble
MGSDKIHHHHHHMKLNTLLQRLDQTVPLAFDTSLQNPEITSLQFDDDTTLSLHPTSLYLAVSADQTITLKGSVGKTAQLSLCAQMQLKNESQLAQLFDRAGCLLTSETSLQAQVNQLAIKAITEDFDTILNQAARTLGNPLIVLDLVGQPVAQSTQAPAISDLTAPAITSVQVQQALKKFRPAKDLIPQVILIQQSQLPLLLLCLPLAYRNNALGYLVMPACVRPLTAEQTAFFKAEAKIITSSLIKNRMMPTAASKRDQLLTMLLTEQQSGTFAAQFAKEHATLPTSMVLIKGEPRAGQSLAALKERLKYLLTPLFSQTLITLYHHQCLALVSVDLPTYNNPEFKADLATIADRANCRLIVSNQYTRPEDTIAAYAVCSRTAKLKSQPTHVTMCEDAFFDLMLAQVDHAEILPFFINPAVKALMDHDAENKTELLPTLDAYLESGENLTHTARQLFIHLNTLRYRLKHISDITGIDLKDAETCFKLGASFKVRRYLNHNKLTFTR | not soluble
MVAPSFPLFNLPQKNLKDVFCNMSVIQQTCISLISEKTRNLVREFHIFKQLQVCLDFIFLPDYHFYLKGSAKFIFIPHNRKFIARSSSGEHSNYSVPQFDAKSWLKHLIYIFNVTEIHSLRSRFFDWDLREPRLKMPKECLKNLKILNLSIGFTNKISLVVELYSAFQHIKKFSLRQYSHKPLDSTLLLELRHLLSKTNQQLCLNINLPLNELLLTSCSSIDIHRTQLTDKDINVFLKHWFAGLKPELEHFRVRKDGPAFNQKTILKGIPHEFASIGRKFKLFEMDSQVGGIDIDLGQDIKATLVFNHKPGIADFSVAVHNSKYFFC | not soluble
MSKLIKGIAASDGVAIAKAYLLVEPDLTFDKNEKVTDVEGEVAKFNSAIEASKVELTKIRNNAEVQLGADKAAIFDAHLLVLDDPELIQPIQDKIKNENANAATALTDVTTQFVTIFESMDNEYMKERAADIRDVSKRVLSHILGVELPNPSMIDESVVIVGNDLTPSDTAQLNKEFVQGFATNIGGRTSASAIMSRSLEIPAIVGTKSITQEVKQGDMIIVDGLNGDVIVNPTEDELIAYQDKRERYFADKKELQKLRDADTVTVDGVHAELAANIGTPNDLPGVIENGAQGIGLYRTEFLYMGRDQMPTEEEQFEAYKEVLEAMGGKRVVVRTLDIGGDKELSYLNLPEEMNPFLGYRAIRLSLAQQDIFRPQLRALLRASVYGKLNIMFPMVATINEFREAKAILLEEKENLKNEGHDISDDIELGIMVEIPATAALADVFAKEVDFFSIGTNDLIQYTLAADRMSERVSYLYQPYNPSILRLVKQVIEASHKEGKWTGMCGEMAGDETAIPLLLGLGLDEFSMSATSILKARRQINGLSKNEMTELANRAVDCATQEEVIELVNNYVK | soluble
MDPKFQRVALSDGHFIPVLGFGTYAPEEVPKSKAMEATKIAIDAGFRHIDSAYFYKNEKEVGLAIRSKIADGTVKREDIFYTSKLWCTFHRPELVRPSLEDSLKNLQLDYVDLYIIHFPTALKPGVEIIPTDEHGKAIFDTVDICATWEAMEKCKDAGLAKSIGVSNFNRRQLEMILNKPGLKYKPVCNQVECHPYLNQGKLLEFCKSKGIVLVAYSALGSHREPEWVDQSAPVLLEDPLIGALAKKHQQTPALIALRYQLQRGIVVLAKSFTEKRIKENIQVFEFQLPSEDMKVIDSLNRNFRYVTADFAIGHPNYPFSDEY | soluble
MKAARQQAIVDLLINHKSLTTEALATRLNVSKETIRRDLSELQTQGKVLRNHGRAKYIHRENQDSGDPFHIRLKSHYAHKADIAREALAWIEEGMTIALDASSTCWYLARQLPDIPIQVFTNSHPICQELGKRERIALISSGGQLERKYGCYVNPSLISQLKSLDIDLFIFSCEGIDGGGDLWDSNAINADFKSILLRRASQSLLLIDKSKFNRSGEARIGHLDDVTHIVSDAPQSLEHHHHHH | not soluble
ASNFTQFVLVDNGGTGDVTVAPSNFANGVAEWISSNSRSQAYKVTCSVRQSSAQNRKYTIKVEVPKVATQTVGGVELPVAAWRSYLNMELTIPIFATNSDCELIVKAMQGLLKDGNPIPSAIAANSGIYANFTQFVLVDNGGTGDVTVAPSNFANGVAEWISSNSRSQAYKVTCSVRQSSAQNRKYTIKVEVPKVATQTVGGVELPVAAWRSYLNMELTIPIFATNSDCELIVKAMQGLLKDGNPIPSAIAANSGIY | soluble
